Columns and labels:
Experiment in all cases: Selectivity ELISA of humanized antibodies for human Eph receptor
Assay type in all cases: binding
human EphA1 = target: T1, human EphA1 (Homo sapiens, UniProt P21709); conditions: coated protein 1 nM
T1 construct: a protein of the extracellular region of each human Eph receptor fused with the SEAP protein and the His tag; made in house; host or cells: Expi293F cells (culture supernatant)
T1 sequence (P21709 26-547 limits assumed): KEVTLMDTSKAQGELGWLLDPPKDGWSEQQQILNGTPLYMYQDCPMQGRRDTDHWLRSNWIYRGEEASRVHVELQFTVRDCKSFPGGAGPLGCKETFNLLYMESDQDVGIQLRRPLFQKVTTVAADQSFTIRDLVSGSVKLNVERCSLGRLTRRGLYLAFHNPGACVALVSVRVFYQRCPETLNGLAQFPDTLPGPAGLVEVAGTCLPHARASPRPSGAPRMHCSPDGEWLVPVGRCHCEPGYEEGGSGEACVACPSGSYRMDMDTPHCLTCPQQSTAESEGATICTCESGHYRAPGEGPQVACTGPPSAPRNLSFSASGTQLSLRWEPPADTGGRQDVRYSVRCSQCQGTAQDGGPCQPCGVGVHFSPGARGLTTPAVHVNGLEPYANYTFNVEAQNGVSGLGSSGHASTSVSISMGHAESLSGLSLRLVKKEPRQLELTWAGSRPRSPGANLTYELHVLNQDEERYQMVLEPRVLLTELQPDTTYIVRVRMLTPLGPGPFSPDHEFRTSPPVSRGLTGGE
In short: (§1)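 Read-out is A450 after TMB development stopped with 1N H2SO4. Plates bore anti-His-captured human Eph extracellular region-SEAP-His proteins at 1 nM final, made in Expi293F cells. Humanized antibody binding ran 1 h at room temperature before HRP-labeled anti-IgG detection.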

human EphA2 = target: T2, human EphA2 (Homo sapiens, UniProt P29317); conditions: coated protein 1 nM
T2 construct: a protein of the extracellular region of each human Eph receptor fused with the SEAP protein and the His tag; made in house; host or cells: Expi293F cells (culture supernatant)
In short: as §1

human EphA4 = target: T3, human EphA4 (Homo sapiens, UniProt P54764); conditions: coated protein 1 nM; reference set to 100%
T3 construct: made in house; not restated for the human SEAP-His protein
In short: as §1

human EphA6 = target: T4, human EphA6 (Homo sapiens, UniProt Q9UF33); conditions: coated protein 1 nM
T4 construct: a protein of the extracellular region of each human Eph receptor fused with the SEAP protein and the His tag; made in house; host or cells: Expi293F cells (culture supernatant)
T4 sequence (Q9UF33 23-550 limits assumed): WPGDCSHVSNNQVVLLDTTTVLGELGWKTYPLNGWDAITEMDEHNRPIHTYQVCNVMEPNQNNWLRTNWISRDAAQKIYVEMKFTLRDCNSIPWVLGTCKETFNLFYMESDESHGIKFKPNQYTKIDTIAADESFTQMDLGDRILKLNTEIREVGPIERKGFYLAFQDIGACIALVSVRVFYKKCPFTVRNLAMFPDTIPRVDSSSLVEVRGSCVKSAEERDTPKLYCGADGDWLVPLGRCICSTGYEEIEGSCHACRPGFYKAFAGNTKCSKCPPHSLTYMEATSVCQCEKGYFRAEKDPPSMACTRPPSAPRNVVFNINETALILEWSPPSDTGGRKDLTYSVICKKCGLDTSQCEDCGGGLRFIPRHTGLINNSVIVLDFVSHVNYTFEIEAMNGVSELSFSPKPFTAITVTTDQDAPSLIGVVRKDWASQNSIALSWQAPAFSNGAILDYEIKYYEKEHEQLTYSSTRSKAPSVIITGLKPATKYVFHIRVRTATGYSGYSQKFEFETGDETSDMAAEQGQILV
In short: as §1

human EphA8 = target: T5, human EphA8 (Homo sapiens, UniProt P29322); conditions: coated protein 1 nM
T5 construct: a protein of the extracellular region of each human Eph receptor fused with the SEAP protein and the His tag; made in house; host or cells: Expi293F cells (culture supernatant)
T5 sequence (P29322 28-542 limits assumed): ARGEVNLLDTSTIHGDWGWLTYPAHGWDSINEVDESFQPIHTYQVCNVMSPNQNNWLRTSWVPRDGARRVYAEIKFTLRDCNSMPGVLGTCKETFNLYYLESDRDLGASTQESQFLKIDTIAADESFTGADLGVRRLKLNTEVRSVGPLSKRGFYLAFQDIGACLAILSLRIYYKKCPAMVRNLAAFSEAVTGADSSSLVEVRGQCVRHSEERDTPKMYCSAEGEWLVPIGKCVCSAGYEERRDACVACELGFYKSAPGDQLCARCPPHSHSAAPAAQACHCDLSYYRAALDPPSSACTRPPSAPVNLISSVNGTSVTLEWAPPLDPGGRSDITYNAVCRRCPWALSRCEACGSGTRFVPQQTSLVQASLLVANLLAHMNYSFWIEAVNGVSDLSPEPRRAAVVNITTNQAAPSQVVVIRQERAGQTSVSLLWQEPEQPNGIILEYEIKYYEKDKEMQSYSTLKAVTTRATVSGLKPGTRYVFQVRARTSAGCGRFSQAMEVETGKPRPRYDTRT
In short: as §1

T3 sequence (P54764 20-547): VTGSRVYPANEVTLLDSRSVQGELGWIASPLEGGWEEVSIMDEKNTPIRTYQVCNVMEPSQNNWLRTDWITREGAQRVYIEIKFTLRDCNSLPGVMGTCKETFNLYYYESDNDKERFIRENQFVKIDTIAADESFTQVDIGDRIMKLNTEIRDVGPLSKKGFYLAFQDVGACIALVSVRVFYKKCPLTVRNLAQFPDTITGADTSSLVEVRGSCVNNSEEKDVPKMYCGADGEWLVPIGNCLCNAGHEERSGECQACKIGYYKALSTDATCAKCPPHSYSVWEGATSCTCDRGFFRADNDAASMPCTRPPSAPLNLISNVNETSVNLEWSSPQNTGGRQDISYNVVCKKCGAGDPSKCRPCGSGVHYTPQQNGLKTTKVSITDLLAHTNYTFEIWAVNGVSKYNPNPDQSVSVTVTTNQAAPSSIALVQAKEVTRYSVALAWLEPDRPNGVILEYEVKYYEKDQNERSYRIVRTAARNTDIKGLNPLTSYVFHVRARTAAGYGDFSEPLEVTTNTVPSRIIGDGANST
T2 sequence (P29317 24-537 limits assumed): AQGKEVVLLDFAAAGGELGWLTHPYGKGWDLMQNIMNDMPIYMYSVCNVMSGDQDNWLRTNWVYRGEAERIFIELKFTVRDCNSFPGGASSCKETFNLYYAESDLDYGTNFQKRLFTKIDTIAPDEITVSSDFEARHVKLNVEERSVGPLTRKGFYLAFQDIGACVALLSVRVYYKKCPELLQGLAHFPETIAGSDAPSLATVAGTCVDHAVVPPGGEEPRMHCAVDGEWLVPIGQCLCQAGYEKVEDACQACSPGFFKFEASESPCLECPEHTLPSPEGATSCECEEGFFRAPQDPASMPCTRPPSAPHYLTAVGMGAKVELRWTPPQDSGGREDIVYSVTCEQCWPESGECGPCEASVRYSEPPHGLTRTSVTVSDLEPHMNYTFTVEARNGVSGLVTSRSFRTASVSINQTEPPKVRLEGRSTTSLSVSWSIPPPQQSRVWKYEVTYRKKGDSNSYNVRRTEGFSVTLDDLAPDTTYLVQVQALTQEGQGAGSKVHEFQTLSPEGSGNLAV

B1: 87 (antibody, V domains shown)
VL: DIQMTQSPSSLSASVGDRVTITCRASENIYRNLAWYQQKPGKAPQLLLYAATNLADGVPSRFSGSGSGTDYTLTISSLQPEDFATYYCQHFWGTPWTFGQGTKVEIK
VH: QVQLVQSGSELKKPGASVKVSCKASGYTFTDYSMHWVRQAPGQGLEWMGWINTETGEPTYAQGFTGRFVFSLDTSVSTAYLQISSLKAEDTAVYYCARIPLYYYGSRYWYFDVWGQGTTVTVSS
modifications: constant regions without entry; synthetic humanized antibody light chain variable region sequence; synthetic humanized antibody heavy chain variable region sequence
hEphA1-SEAP-: absorbance at 450 nm, percentage with respect to hEphA4-SEAP-His as 100% (human EphA1): 5.3% | hEphA2-SEAP-: absorbance at 450 nm, percentage with respect to hEphA4-SEAP-His as 100% (human EphA2): 5.4% | hEphA4-SEAP-: absorbance at 450 nm, percentage with respect to hEphA4-SEAP-His as 100% (human EphA4): 100% | hEphA6-SEAP-: absorbance at 450 nm, percentage with respect to hEphA4-SEAP-His as 100% (human EphA6): 6.4% | hEphA8-SEAP-: absorbance at 450 nm, percentage with respect to hEphA4-SEAP-His as 100% (human EphA8): 5.7%

B2: 88 (antibody, V domains shown)
VL: DIQMTQSPSSLSASVGDRVTITCRASENIYRNLAWYQQKPGKAPQLLLYAATNLADGVPSRFSGSGSGTDYTLTISSLQPEDFATYYCQHFWGTPWTFGQGTKVEIK
VH: QVQLVQSGSELKKPGASVKVSCKASGYTFTDYSMHWVRQAPGQGLKWMGWINTETGEPTYAQGFTGRFVFSLDTSVSTAYLQISSLKAEDTAVYYCARIPLYYYGSRYWYFDVWGQGTTVTVSS
modifications: constant regions without entry; synthetic humanized antibody light chain variable region sequence; synthetic humanized antibody heavy chain variable region sequence
hEphA1-SEAP-: absorbance at 450 nm, percentage with respect to hEphA4-SEAP-His as 100% (human EphA1): 5.8% | hEphA2-SEAP-: absorbance at 450 nm, percentage with respect to hEphA4-SEAP-His as 100% (human EphA2): 5.8% | hEphA4-SEAP-: absorbance at 450 nm, percentage with respect to hEphA4-SEAP-His as 100% (human EphA4): 100% | hEphA6-SEAP-: absorbance at 450 nm, percentage with respect to hEphA4-SEAP-His as 100% (human EphA6): 7.5% | hEphA8-SEAP-: absorbance at 450 nm, percentage with respect to hEphA4-SEAP-His as 100% (human EphA8): 6.2%

B3: 89 (antibody, V domains shown)
VL: DIQMTQSPSSLSASVGDRVTITCRASENIYRNLAWYQQKPGKAPQLLLYAATNLADGVPSRFSGSGSGTDYTLTISSLQPEDFATYYCQHFWGTPWTFGQGTKVEIK
VH: QIQLVQSGSELKKPGASVKVSCKASGYTFTDYSMHWVRQAPGQGLKWMGWINTETGEPTYAQGFTGRFVFSLDTSVSTAYLQISSLKAEDTAVYYCARIPLYYYGSRYWYFDVWGQGTTVTVSS
modifications: constant regions without entry; synthetic humanized antibody light chain variable region sequence; synthetic humanized antibody heavy chain variable region sequence
hEphA1-SEAP-: absorbance at 450 nm, percentage with respect to hEphA4-SEAP-His as 100% (human EphA1): 5.5% | hEphA2-SEAP-: absorbance at 450 nm, percentage with respect to hEphA4-SEAP-His as 100% (human EphA2): 5.6% | hEphA4-SEAP-: absorbance at 450 nm, percentage with respect to hEphA4-SEAP-His as 100% (human EphA4): 100% | hEphA6-SEAP-: absorbance at 450 nm, percentage with respect to hEphA4-SEAP-His as 100% (human EphA6): 8.4% | hEphA8-SEAP-: absorbance at 450 nm, percentage with respect to hEphA4-SEAP-His as 100% (human EphA8): 5.7%

B4: 90 (antibody, V domains shown)
VL: DIQMTQSPSSLSASVGDRVTITCRASENIYRNLAWYQQKPGKAPQLLLYAATNLADGVPSRFSGSGSGTDYTLTISSLQPEDFATYYCQHFWGTPWTFGQGTKVEIK
VH: QVQLVQSGSELKKPGASVKVSCKASGYTFTDYSMHWVRQAPGQGLEWMGWINTETGEPTYADDFKGRFVFSLDTSVSTAYLQISSLKAEDTAVYYCARIPLYYYGSRYWYFDVWGQGTTVTVSS
modifications: constant regions without entry; synthetic humanized antibody light chain variable region sequence; synthetic humanized antibody heavy chain variable region sequence
hEphA1-SEAP-: absorbance at 450 nm, percentage with respect to hEphA4-SEAP-His as 100% (human EphA1): 5.1% | hEphA2-SEAP-: absorbance at 450 nm, percentage with respect to hEphA4-SEAP-His as 100% (human EphA2): 5.2% | hEphA4-SEAP-: absorbance at 450 nm, percentage with respect to hEphA4-SEAP-His as 100% (human EphA4): 100% | hEphA6-SEAP-: absorbance at 450 nm, percentage with respect to hEphA4-SEAP-His as 100% (human EphA6): 7.6% | hEphA8-SEAP-: absorbance at 450 nm, percentage with respect to hEphA4-SEAP-His as 100% (human EphA8): 5.4%

B5: 91 (antibody, V domains shown)
VL: DIQMTQSPSSLSASVGDRVTITCRASENIYRNLAWYQQKPGKAPQLLLYAATNLADGVPSRFSGSGSGTDYTLTISSLQPEDFATYYCQHFWGTPWTFGQGTKVEIK
VH: QVQLVQSGSELKKPGASVKVSCKASGYTFTDYSMHWVRQAPGQGLKWMGWINTETGEPTYADDFKGRFVFSLDTSVSTAYLQISSLKAEDTAVYYCARIPLYYYGSRYWYFDVWGQGTTVTVSS
modifications: constant regions without entry; synthetic humanized antibody light chain variable region sequence; synthetic humanized antibody heavy chain variable region sequence
hEphA1-SEAP-: absorbance at 450 nm, percentage with respect to hEphA4-SEAP-His as 100% (human EphA1): 5.8% | hEphA2-SEAP-: absorbance at 450 nm, percentage with respect to hEphA4-SEAP-His as 100% (human EphA2): 6.1% | hEphA4-SEAP-: absorbance at 450 nm, percentage with respect to hEphA4-SEAP-His as 100% (human EphA4): 100% | hEphA6-SEAP-: absorbance at 450 nm, percentage with respect to hEphA4-SEAP-His as 100% (human EphA6): 8.8% | hEphA8-SEAP-: absorbance at 450 nm, percentage with respect to hEphA4-SEAP-His as 100% (human EphA8): 6.2%

B6: 92 (antibody, V domains shown)
VL: DIQMTQSPSSLSASVGDRVTITCRASENIYRNLAWYQQKPGKAPQLLLYAATNLADGVPSRFSGSGSGTDYTLTISSLQPEDFATYYCQHFWGTPWTFGQGTKVEIK
VH: QIQLVQSGSELKKPGASVKVSCKASGYTFTDYSMHWVRQAPGQGLKWMGWINTETGEPTYADDFKGRFVFSLDTSVSTAYLQISSLKAEDTAVYYCARIPLYYYGSRYWYFDVWGQGTTVTVSS
modifications: constant regions without entry; synthetic humanized antibody light chain variable region sequence; synthetic humanized antibody heavy chain variable region sequence
hEphA1-SEAP-: absorbance at 450 nm, percentage with respect to hEphA4-SEAP-His as 100% (human EphA1): 7.0% | hEphA2-SEAP-: absorbance at 450 nm, percentage with respect to hEphA4-SEAP-His as 100% (human EphA2): 6.9% | hEphA4-SEAP-: absorbance at 450 nm, percentage with respect to hEphA4-SEAP-His as 100% (human EphA4): 100% | hEphA6-SEAP-: absorbance at 450 nm, percentage with respect to hEphA4-SEAP-His as 100% (human EphA6): 9.6% | hEphA8-SEAP-: absorbance at 450 nm, percentage with respect to hEphA4-SEAP-His as 100% (human EphA8): 6.7%

B7: 93 (antibody, V domains shown)
VL: EIVMTQSPATLSVSPGERATLSCRASENIYRNLAWYQQKPGQSPRLLIYAATNLADGIPARFSGSGSGTEYTLTISSLQSEDFAVYYCQHFWGTPWTFGQGTKVEIK
VH: QVQLVQSGSELKKPGASVKVSCKASGYTFTDYSMHWVRQAPGQGLEWMGWINTETGEPTYAQGFTGRFVFSLDTSVSTAYLQISSLKAEDTAVYYCARIPLYYYGSRYWYFDVWGQGTTVTVSS
modifications: constant regions without entry; synthetic humanized antibody light chain variable region sequence; synthetic humanized antibody heavy chain variable region sequence
hEphA1-SEAP-: absorbance at 450 nm, percentage with respect to hEphA4-SEAP-His as 100% (human EphA1): 5.0% | hEphA2-SEAP-: absorbance at 450 nm, percentage with respect to hEphA4-SEAP-His as 100% (human EphA2): 5.0% | hEphA4-SEAP-: absorbance at 450 nm, percentage with respect to hEphA4-SEAP-His as 100% (human EphA4): 100% | hEphA6-SEAP-: absorbance at 450 nm, percentage with respect to hEphA4-SEAP-His as 100% (human EphA6): 7.1% | hEphA8-SEAP-: absorbance at 450 nm, percentage with respect to hEphA4-SEAP-His as 100% (human EphA8): 5.0%
